Biological target: 3×HA-Creb1 (UniProt Q01147-2 1-327)
Assay: cell-based or functional assay

Chain of 3×HA-Creb1 (Q01147 whole entry): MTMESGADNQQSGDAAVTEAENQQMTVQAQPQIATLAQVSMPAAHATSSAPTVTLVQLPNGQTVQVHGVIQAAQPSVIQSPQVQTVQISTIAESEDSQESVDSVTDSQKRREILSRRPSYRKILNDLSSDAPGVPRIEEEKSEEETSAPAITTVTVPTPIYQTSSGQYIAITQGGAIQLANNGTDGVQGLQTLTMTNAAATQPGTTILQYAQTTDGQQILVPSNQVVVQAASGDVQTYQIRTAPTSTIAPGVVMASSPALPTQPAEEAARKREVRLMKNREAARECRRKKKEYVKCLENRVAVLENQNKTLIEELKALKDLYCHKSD

B1: 6×Myc-Mef2c (natural protein)
chain: not shown
- transactivation of Reporter II (4×(Mef2#3–CRE#3–E#4) luciferase) by Mef2c and Creb1 together in HEK293T cells; 2.8-fold by Mef2c and 3.7-fold by Creb1 alone: 8.3 fold

— article PMC8945367, “Transcription Regulation of Tceal7 by the Triple Complex of Mef2c, Creb1 and Myod” (Biology, 2022)
